Source: patent US7829528B2, “Compositions and methods for treating STAT-6 associated diseases or conditions” (The Rockefeller University, priority 2004, dated 2010)
Where a SMILES comes first, the peptide text is derived from it. Where no end group is shown, it is not given here. [ ]: non-standard residue; d: D form. pY = N[C@@H](Cc1ccc(OP(=O)(O)O)cc1)C(=O)O

Legend:
[1] = Stability of intracellular STAT-6-IP in splenocytes (western blot, anti-phosphoSTAT-6 antibody); format: cell-based, murine; settings: mouse, murine splenocytes (intracellular peptide after loading); 4 hours loading at 100 μM, washed, trypsinized
Description: (§1) To determine the half-life of the intracellular PTD4 peptide in the absence of further uptake, splenocytes were incubated with the FITC-PTD4 peptide for 4 hours, washed and trypsinized, and placed back into complete medium after which intracellular localization of the peptide was monitored over time by flow cytometry. […] To monitor stability of the murine-specific PTD4-STAT-6 peptide (STAT-6-IP; Tyr-Ala-Arg-Ala-Ala-Ala-Arg-Gln-Ala-Arg-Ala-Gly-Arg-Gly-Tyr*-Val-Ser-Thr-Thr; SEQ ID NO:7) in murine splenocytes, cells were incubated with the STAT-6-IP for four hours, after which they were washed and trypsinized. The presence of intracellular STAT-6-IP was monitored by western blot analysis of cell lysates harvested at different time points and resolved by SDS-PAGE. The STAT-6-IP was visualized using anti-phosphoSTAT-6 antibody and data normalized to 100% (Table 2).
(§2) To monitor stability of the STAT-6-IP in murine splenocytes, cells in DMEM/10% FBS were incubated with the STAT-6-IP (100 μM) for four hours, after which they were washed twice with PBS and trypsinized. Splenocytes were then incubated with soybean trypsin inhibitor (0.5 mg/mL in 10 mM sodium tetraborate) for 5 minutes. The cells were washed again once in PBS and subsequently placed back into complete medium. At different time points, cells were harvested and lysed in tricine sample buffer (100 mM Tris-HCl, pH 6.8, 24% glycerol, 8% SDS, 200 mM DTT). Lysates were clarified and equal concentrations (20 μg/lane) resolved by SDS-PAGE on 18% tris-tricine gels, after which proteins were transferred to PVDF membrane. For western immunoblot analysis, membranes were blocked for one hour in TBST (10 mM Tris-Cl pH 7.4, 2.5 mM EDTA, 150 mM NaCl, 0.1% TWEEN™-20) containing 0.25% gelatin (bloom 275) at room temperature. Blots were incubated with anti-phosphoSTAT-6 antibodies overnight at 4° C. followed by horseradish peroxidase-conjugated bovine anti-rabbit secondary antibody for one hour. Immunoreactive bands were detected by enhanced chemiluminescence, ECLT™ (Amersham Life Sciences, San Francisco, Calif.), visualized and quantified on a FLUORCHEM™ 8000 Imaging System using ALPHAEASE™ software (Alpha Innotech, San Leandro, Calif.).

murine splenocytes [2] = experiment: as above; format: cell-based; settings: for Percent Maximum (±STD), intracellular STAT-6-IP: normalized to 100%
Description: as §1, §2

murine splenocytes [3] = experiment: Uptake of FITC-conjugated PTD4 peptide by splenocytes (flow cytometry); format: cell-based; settings: for Percent Maximum (±SEM), peptide uptake: FITC-PTD4 100 μM, normalized to 100%
Description: The ability of the PTD4 protein transduction domain to enter cells was confirmed by incubating murine splenocytes with FITC-conjugated PTD4 peptide (FITC-PTD4). Splenocytes were incubated with FITC-PTD4 for various times (30 minutes to 24 hours), subsequently washed and incubated with trypsin to remove surface bound peptide, and analyzed by flow cytometry. Data was normalized to 100%. Half-maximal peptide uptake occurred at 1 hour and plateaued after 4-6 hours (Table 1).
To monitor peptide uptake, splenocytes in Dulbecco's Modified Eagle Medium (DMEM)/10% fetal bovine serum (FBS) were incubated continuously with FITC-conjugated PTD4 peptide (100 μM) for 30 minutes to 24 hours. At each time point, surface bound peptide was removed by washing cells twice with phosphate-buffered saline (PBS) and then incubating cells with trypsin for five minutes. Ten thousand cells were subsequently analyzed by flow cytometry. To monitor the half-life of intracellular peptide (in the absence of uptake), splenocytes in DMEM/10% FBS were incubated with FITC-conjugated PTD4 peptide (100 μM) for four hours, after which they were washed twice with PBS and incubated with trypsin for five minutes. Splenocytes were returned to DMEM/10% FBS and intracellular localization of peptide monitored over time by flow cytometry.

murine splenocytes [4] = format: cell-based; settings: mouse
Description: as §1
To monitor peptide uptake, splenocytes in Dulbecco's Modified Eagle Medium (DMEM)/10% fetal bovine serum (FBS) were incubated continuously with FITC-conjugated PTD4 peptide (100 μM) for 30 minutes to 24 hours. […] Ten thousand cells were subsequently analyzed by flow cytometry. […] Splenocytes were returned to DMEM/10% FBS and intracellular localization of peptide monitored over time by flow cytometry.

Row | half-life at 100 μM [1] | Percent Maximum (±STD), intracellular STAT-6-IP (murine splenocytes [2]; 0.5 hours after 4 hours loading at 100 μM) | Percent Maximum (±STD), intracellular STAT-6-IP (murine splenocytes [2]; 1.0 hours after 4 hours loading at 100 μM) | Percent Maximum (±STD), intracellular STAT-6-IP (murine splenocytes [2]; 4.0 hours after 4 hours loading at 100 μM) | Time peptide remained in the cells (murine splenocytes [2]; 4 hours loading at 100 μM, washed, trypsinized) | Percent Maximum (±STD), intracellular STAT-6-IP (murine splenocytes [2]; 6.0 hours after 4 hours loading at 100 μM) | Percent Maximum (±STD), intracellular STAT-6-IP (murine splenocytes [2]; 8.0 hours after 4 hours loading at 100 μM) | Percent Maximum (±STD), intracellular STAT-6-IP (murine splenocytes [2]; 24.0 hours after 4 hours loading at 100 μM) | Molecule | Percent Maximum (±SEM), peptide uptake (murine splenocytes [3]; 0 hours) | Percent Maximum (±SEM), peptide uptake (murine splenocytes [3]; 0.5 hours) | Percent Maximum (±SEM), peptide uptake (murine splenocytes [3]; 1.0 hours) | Percent Maximum (±SEM), peptide uptake (murine splenocytes [3]; 2.0 hours) | Percent Maximum (±SEM), peptide uptake (murine splenocytes [3]; 4.0 hours) | Percent Maximum (±SEM), peptide uptake (murine splenocytes [3]; 6.0 hours) | Percent Maximum (±SEM), peptide uptake (murine splenocytes [3]; 24.0 hours) | Time after which peptide uptake plateaued (murine splenocytes [3]; continuous incubation, 100 μM) | Time of half-maximal peptide uptake (murine splenocytes [3]; continuous incubation, 100 μM) | Half-life of intracellular peptide (murine splenocytes [4])
1 | ~8 h | 100.00 ± 0.00% | 93.69 ± 17.14% | 68.33 ± 17.42% | up to 24 hours | 66.56 ± 15.04% | 46.47 ± 15.98% | 38.50 ± 51.74% | CC(C)[C@H](NC(=O)[C@H](Cc1ccc(OP(=O)(O)O)cc1)NC(=O)CNC(=O)[C@H](CCCNC(=N)N)NC(=O)CNC(=O)[C@H](C)NC(=O)[C@H](CCCNC(=N)N)NC(=O)[C@H](C)NC(=O)[C@H](CCC(N)=O)NC(=O)[C@H](CCCNC(=N)N)NC(=O)[C@H](C)NC(=O)[C@H](C)NC(=O)[C@H](C)NC(=O)[C@H](CCCNC(=N)N)NC(=O)[C@H](C)NC(=O)[C@@H](N)Cc1ccc(O)cc1)C(=O)N[C@@H](CO)C(=O)N[C@H](C(=O)N[C@H](C(=O)O)[C@@H](C)O)[C@@H](C)O [STAT-6-IP, Tyr-Ala-Arg-Ala-Ala-Ala-Arg-Gln-Ala-Arg-Ala-Gly-Arg-Gly-Tyr*-Val-Ser-Thr-Thr] (H-YARAAARQARAGRG[pY]VSTT-OH; N-terminus and C-terminus assumed) |  |  |  |  |  |  |  |  |  | 
2 |  |  |  |  |  |  |  |  | FITC-PTD4: FITC-conjugated PTD4 protein transduction domain peptide (PTD4: Tyr-Ala-Arg-Ala-Ala-Ala-Arg-Gln-Ala-Arg-Ala; SEQ ID NO:6) (YARAAARQARA; not fully specified (N-terminus); printed as Tyr-Ala-Arg-Ala-Ala-Ala-Arg-Gln-Ala-Arg-Ala; also: FITC label, position not given here) | 4.16 ± 0.53% | 31.2 ± 4.35% | 46.57 ± 6.63% | 69.70 ± 8.60% | 72.86 ± 8.51% | 76.71 ± 7.58% | 78.49 ± 14.11% | 4 to 6 h | 1 h | approximately four
